Data as given in PMC7697625 (Biomolecules, 2020).

Molecular target: the molecule itself
Test: AUC; sedimentation velocity, 20 uM (0.25 mg/mL), 20 mM sodium phosphate pH 8.0, 200 mM NaCl, 20 C, 50,000 RPM; monomer and dimer

B1: TNIP1 AHD1-UBAN construct (TNIP1^417-509) (domain or fragment, human, UniProt Q15025 417-509, looked up)
chain: QRLNKALEEALSIQTPPSSPPTAFGSPEGAGALLRKQELVTQNELLKQQVKIFEEDFQRERSDRERMNEEKEELKKQVEKLQAQVTLSNAQLK
notes: pET28a construct; For NMR the protein was 15N-labelled (minimal medium with 15NH4Cl); also called TNIP1 AHD1-UBAN region; AHD1-UBAN domain; source: E. coli BL-21(DE3) Rosetta 2, heat lysis, purified (HisTrap HP, Superdex 75); not shown: His6, C-terminal, kept
stoichiometry N: 2
